Measurements as given in patent US20140087436.
Changes are numbered by the printed parent chain.

Experiments:
Test in all cases: cell_activity
[1] = target: T1, CbbR A117V (Ralstonia eutropha) (UniProt P42722); conditions: beta-galactosidase, chemoheterotrophic; chemoautotrophic 6793
T1 sequence: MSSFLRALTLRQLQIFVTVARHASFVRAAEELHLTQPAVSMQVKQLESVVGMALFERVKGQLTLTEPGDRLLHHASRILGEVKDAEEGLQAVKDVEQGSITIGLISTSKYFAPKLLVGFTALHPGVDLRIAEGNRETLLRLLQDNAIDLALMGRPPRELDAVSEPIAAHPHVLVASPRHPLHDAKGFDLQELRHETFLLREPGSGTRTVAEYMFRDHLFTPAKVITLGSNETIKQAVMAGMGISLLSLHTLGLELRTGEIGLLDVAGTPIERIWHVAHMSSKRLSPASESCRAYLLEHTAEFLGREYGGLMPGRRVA

[2] = target: T2, CbbR D144N (Ralstonia eutropha) (UniProt P42722); conditions: beta-galactosidase, chemoheterotrophic; chemoautotrophic 6932
T2 sequence: T1 sequence with V117A, D144N

[3] = target: T3, CbbR D148N (Ralstonia eutropha) (UniProt P42722); conditions: beta-galactosidase, chemoheterotrophic; chemoautotrophic 6442
T3 sequence: T1 sequence with V117A, D148N

[4] = target: T4, CbbR E87K (Ralstonia eutropha) (UniProt P42722); conditions: beta-galactosidase, chemoheterotrophic; chemoautotrophic 5515
T4 sequence: T1 sequence with E87K, V117A

[5] = target: T5, CbbR G125S/V265M (Ralstonia eutropha) (UniProt P42722); conditions: beta-galactosidase, chemoheterotrophic; chemoautotrophic 6770
T5 sequence: T1 sequence with V117A, G125S, V265M

[6] = target: T6, CbbR G205D/G118D (Ralstonia eutropha) (UniProt P42722); conditions: beta-galactosidase, chemoheterotrophic; chemoautotrophic 3939
T6 sequence: T1 sequence with V117A, G118D, G205D

[7] = target: T7, CbbR G205D/R283H (Ralstonia eutropha) (UniProt P42722); conditions: beta-galactosidase, chemoheterotrophic; chemoautotrophic 4480
T7 sequence: T1 sequence with V117A, G205D, R283H

[8] = target: T8, CbbR L79F (Ralstonia eutropha) (UniProt P42722); conditions: beta-galactosidase, chemoheterotrophic; chemoautotrophic 6840
T8 sequence: T1 sequence with L79F, V117A

cbb promoter in lacZ reporter strain
activity [1]: 254 nmol/min/mg | activity [2]: 809 nmol/min/mg | activity [3]: 343 nmol/min/mg | activity [4]: 1600 nmol/min/mg | activity [5]: 53 nmol/min/mg | activity [6]: 1170 nmol/min/mg | activity [7]: 2310 nmol/min/mg | activity [8]: 218 nmol/min/mg
